Values of other authors, collected in PMC9346034.

Assays:
Hsp70 (Homo sapiens) = Hsp70 (Homo sapiens) (UniProt P0DMV8)
DnaK (Escherichia coli) = DnaK (Escherichia coli) (UniProt P0A6Y8)
DnaK (Escherichia coli), sequence (P0A6Y8 2-638): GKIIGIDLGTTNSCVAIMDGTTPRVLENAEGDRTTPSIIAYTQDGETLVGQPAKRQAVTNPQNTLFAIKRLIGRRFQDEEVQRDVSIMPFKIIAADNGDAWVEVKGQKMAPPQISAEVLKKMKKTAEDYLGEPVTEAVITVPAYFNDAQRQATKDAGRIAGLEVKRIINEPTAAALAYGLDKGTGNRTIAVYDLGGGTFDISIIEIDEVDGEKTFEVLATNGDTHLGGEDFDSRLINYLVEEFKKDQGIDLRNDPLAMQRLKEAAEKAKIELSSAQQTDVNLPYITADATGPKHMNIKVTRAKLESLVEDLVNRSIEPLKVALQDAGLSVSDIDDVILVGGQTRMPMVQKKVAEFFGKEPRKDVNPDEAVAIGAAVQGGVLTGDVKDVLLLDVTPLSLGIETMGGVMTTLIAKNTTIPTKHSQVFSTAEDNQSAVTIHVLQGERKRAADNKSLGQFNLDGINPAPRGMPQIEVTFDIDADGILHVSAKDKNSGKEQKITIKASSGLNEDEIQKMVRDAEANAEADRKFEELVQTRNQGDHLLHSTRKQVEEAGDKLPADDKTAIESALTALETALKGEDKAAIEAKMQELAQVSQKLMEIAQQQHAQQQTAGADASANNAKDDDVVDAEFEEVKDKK

Hsp70 (Homo sapiens), sequence (P0DMV8 2-641): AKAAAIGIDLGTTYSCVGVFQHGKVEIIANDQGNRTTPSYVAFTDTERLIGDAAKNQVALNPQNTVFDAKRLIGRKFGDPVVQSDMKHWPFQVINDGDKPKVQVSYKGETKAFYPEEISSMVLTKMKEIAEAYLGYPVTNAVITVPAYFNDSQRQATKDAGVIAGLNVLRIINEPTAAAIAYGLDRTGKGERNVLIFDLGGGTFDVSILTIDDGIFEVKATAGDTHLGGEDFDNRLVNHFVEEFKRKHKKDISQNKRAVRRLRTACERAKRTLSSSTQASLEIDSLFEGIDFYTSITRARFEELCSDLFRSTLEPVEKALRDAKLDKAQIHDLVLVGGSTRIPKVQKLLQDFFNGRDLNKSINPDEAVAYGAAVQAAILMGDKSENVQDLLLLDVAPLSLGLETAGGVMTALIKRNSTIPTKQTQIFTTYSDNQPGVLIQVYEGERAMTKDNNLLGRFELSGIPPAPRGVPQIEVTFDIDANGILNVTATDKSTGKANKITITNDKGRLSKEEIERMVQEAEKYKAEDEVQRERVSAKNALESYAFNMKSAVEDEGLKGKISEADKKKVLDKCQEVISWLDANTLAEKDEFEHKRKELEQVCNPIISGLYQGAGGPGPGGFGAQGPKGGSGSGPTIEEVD
Bag3-ΔBag ΔBag, sequence (O95817 2-420, stated change not applied): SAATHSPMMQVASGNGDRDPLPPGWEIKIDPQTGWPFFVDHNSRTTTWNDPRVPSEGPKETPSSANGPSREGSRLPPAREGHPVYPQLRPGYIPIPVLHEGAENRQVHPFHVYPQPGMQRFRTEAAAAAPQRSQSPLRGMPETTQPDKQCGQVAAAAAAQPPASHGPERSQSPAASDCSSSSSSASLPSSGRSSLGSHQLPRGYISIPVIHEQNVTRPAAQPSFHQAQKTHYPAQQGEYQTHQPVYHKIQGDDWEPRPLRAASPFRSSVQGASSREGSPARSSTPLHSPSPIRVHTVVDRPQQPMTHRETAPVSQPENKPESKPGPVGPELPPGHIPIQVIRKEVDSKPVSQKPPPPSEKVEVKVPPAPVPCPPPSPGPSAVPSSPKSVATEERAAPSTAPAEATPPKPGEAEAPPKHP
Bag3-ΔBag ΔBag, sequence (O95817 499-575, stated change not applied): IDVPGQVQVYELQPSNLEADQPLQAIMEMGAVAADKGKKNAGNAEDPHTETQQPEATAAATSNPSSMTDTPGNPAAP
DnaJ, sequence (P08622 2-376): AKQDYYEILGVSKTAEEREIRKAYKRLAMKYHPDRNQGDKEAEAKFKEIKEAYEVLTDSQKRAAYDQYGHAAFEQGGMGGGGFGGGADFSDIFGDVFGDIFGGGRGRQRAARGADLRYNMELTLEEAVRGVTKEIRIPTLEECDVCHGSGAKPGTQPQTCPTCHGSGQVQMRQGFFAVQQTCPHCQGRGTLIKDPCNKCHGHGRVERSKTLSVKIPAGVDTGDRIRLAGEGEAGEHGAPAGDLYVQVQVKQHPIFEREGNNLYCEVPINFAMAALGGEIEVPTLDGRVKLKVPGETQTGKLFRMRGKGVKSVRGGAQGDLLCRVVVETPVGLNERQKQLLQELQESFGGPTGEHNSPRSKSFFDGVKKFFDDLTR

Row | Substance | Kd (Hsp70 (Homo sapiens)) [µM] | Kd (DnaK (Escherichia coli)) [µM]
1 | Bag3-ΔBag ΔBag (from UniProt O95817) | 10 | –
2 | DnaJ (from UniProt P08622) | – | 3.6
